Residue numbers refer to the chain shown, from its start.

B1: IgG1-F1262 (antibody)
heavy: QVQLQESGPGLVKPSETLSLTCAVSGHSISHDHAWSWVRQPPGEGLEWIGFISYSGITNYNPSLQGRVTISRDNSKNTLYLQMNSLRAEDTAVYYCARSLARTTAMDYWGEGTLVTVSSASTKGPSVFPLAPSSKSTSGGTAALGCLVKDYFPEPVTVSWNSGALTSGVHTFPAVLQSSGLYSLSSVVTVPSSSLGTQTYICNVNHKPSNTKVDKKVEPKSCDKTHTCPPCPAPELRGGPKVFLFPPKPKDTLYISRTPEVTCVVVDVSHEDPEVKFNWYVDGVEVHNAKTKPREEQYNSTYRVVSVLTVLHQDWLNGKEYKCKVSNKALPAPIEKTISKAKGQPREPQVYTLPPSRDELTKNQVSLTCLVKGFYPSDIAVEWESNGQPENNYKTTPPVLDSDGSFFLYSKLTVDKSRWQQGNVFSCSVMHEALHYHVTKKELSLSP
light: not shown
notes: EU numbering; copies: 2 + 2
B2: IgG1-F1218 (antibody)
heavy: B1 heavy with R237L, K241S, L253V, K440Q, E442S
light: not shown
notes: EU numbering; copies: 2 + 2
B3: IgG1-F1163 (antibody)
heavy: B1 heavy with R237L, P240D, K241S, T252Y, T309Q, Q313A, V438Y, K440Q, E442S
light: not shown
notes: EU numbering; copies: 2 + 2
B4: IgG1-F1259 (antibody)
heavy: B1 heavy with T309Q, Q313A, K440R
light: not shown
notes: EU numbering; copies: 2 + 2
B5: IgG1-F1256 (antibody)
heavy: B1 heavy with Q313H, K440R
light: not shown
notes: EU numbering; copies: 2 + 2
B6: IgG1-F1164 (antibody)
heavy: B1 heavy with R237L, P240D, K241S, T252Y, T309Q, Q313A, K440Q, E442S
light: not shown
notes: EU numbering; copies: 2 + 2
B7: IgG1-F1183 (antibody)
heavy: B1 heavy with R237L, K241S, Y254M, E382A, M430L, Y436S, V438Y, K440Q, E442S
light: not shown
notes: EU numbering; copies: 2 + 2
B8: IgG1-F1202 (antibody)
heavy: B1 heavy with R237L, K241S, T252V, S256T, T258E, K440R
light: not shown
notes: EU numbering; copies: 2 + 2
B9: IgG1-F1208 (antibody)
heavy: B1 heavy with R237L, K241S, L253A, K440Q, E442S
light: not shown
notes: EU numbering; copies: 2 + 2
B10: IgG1-F1196 (antibody)
heavy: B1 heavy with R237L, K241S, K440R, L443E
light: not shown
notes: EU numbering; copies: 2 + 2
B11: IgG1-F1200 (antibody)
heavy: B1 heavy with R237L, K241S, T252V, S256T, K440R
light: not shown
notes: EU numbering; copies: 2 + 2
B12: IgG1-F1232 (antibody)
heavy: B1 heavy with R237L, K241S, E442D
light: not shown
notes: EU numbering; copies: 2 + 2
B13: IgG1-F1249 (antibody)
heavy: B1 heavy with T258Q, K440R
light: not shown
notes: EU numbering; copies: 2 + 2
B14: IgG1-F1160 (antibody)
heavy: B1 heavy with R237L, K241S, Y254M, V310F, S426N, V438Y, K440Q, E442S
light: not shown
notes: EU numbering; copies: 2 + 2
B15: IgG1-F1257 (antibody)
heavy: B1 heavy with T309A, Q313A, K440R
light: not shown
notes: EU numbering; copies: 2 + 2
B16: IgG1-F1254 (antibody)
heavy: B1 heavy with T309Q, K440R
light: not shown
notes: EU numbering; copies: 2 + 2
B17: IgG1-F1198 (antibody)
heavy: B1 heavy with R237L, K241S, T258E, K440R
light: not shown
notes: EU numbering; copies: 2 + 2
B18: IgG1-F1194 (antibody)
heavy: B1 heavy with R237L, K241S, K440R, K441D
light: not shown
notes: EU numbering; copies: 2 + 2
B19: IgG1-F1161 (antibody)
heavy: B1 heavy with R237L, K241S, Y254M, I334V, S426N, V438Y, K440Q, E442S
light: not shown
notes: EU numbering; copies: 2 + 2
B20: IgG1-F1231 (antibody)
heavy: B1 heavy with R237L, K241S
light: not shown
notes: EU numbering; copies: 2 + 2
B21: IgG1-F1188 (antibody)
heavy: B1 heavy with R237L, K241S, Y254M, T309A, E382A, Y436H, V438Y, K440Q, E442S
light: not shown
notes: EU numbering; copies: 2 + 2
B22: IgG1-F1247 (antibody)
heavy: B1 heavy with T252V, T258E, K440R
light: not shown
notes: EU numbering; copies: 2 + 2
B23: IgG1-F1251 (antibody)
heavy: B1 heavy with T252V, T258Q, K440R
light: not shown
notes: EU numbering; copies: 2 + 2
B24: IgG1-F1199 (antibody)
heavy: B1 heavy with R237L, K241S, S256T, T258E, K440R
light: not shown
notes: EU numbering; copies: 2 + 2
B25: IgG1-F1178 (antibody)
heavy: B1 heavy with R237L, K241S, Y254M, V261I, V310F, M430L, Y436N, V438Y, K440Q, E442S
light: not shown
notes: EU numbering; copies: 2 + 2
B26: IgG1-F1203 (antibody)
heavy: B1 heavy with R237L, K241S, T258Q, K440R
light: not shown
notes: EU numbering; copies: 2 + 2
B27: IgG1-F1255 (antibody)
heavy: B1 heavy with Q313A, K440R
light: not shown
notes: EU numbering; copies: 2 + 2
B28: IgG1-F1204 (antibody)
heavy: B1 heavy with R237L, K241S, S256T, T258Q, K440R
light: not shown
notes: EU numbering; copies: 2 + 2
B29: IgG1-F1246 (antibody)
heavy: B1 heavy with T252V, S256T, K440R
light: not shown
notes: EU numbering; copies: 2 + 2
B30: IgG1-F1260 (antibody)
heavy: B1 heavy with T309Q, Q313H, K440R
light: not shown
notes: EU numbering; copies: 2 + 2
B31: IgG1-F1244 (antibody)
heavy: B1 heavy with T258E, K440R
light: not shown
notes: EU numbering; copies: 2 + 2
B32: IgG1-F1252 (antibody)
heavy: B1 heavy with T252V, S256T, T258Q, K440R
light: not shown
notes: EU numbering; copies: 2 + 2
B33: IgG1-F1191 (antibody)
heavy: B1 heavy with R237L, K241S, T439A, K440R
light: not shown
notes: EU numbering; copies: 2 + 2
B34: IgG1-F1243 (antibody)
heavy: B1 heavy with S256T, K440R
light: not shown
notes: EU numbering; copies: 2 + 2
B35: IgG1-F1165 (antibody)
heavy: B1 heavy with R237L, P240D, K241S, T252Y, T309Q, V310P, Q313A, K440Q, E442S
light: not shown
notes: EU numbering; copies: 2 + 2
B36: IgG1-F1253 (antibody)
heavy: B1 heavy with T309A, K440R
light: not shown
notes: EU numbering; copies: 2 + 2
B37: IgG1-F1195 (antibody)
heavy: B1 heavy with R237L, K241S, K440R, L443A
light: not shown
notes: EU numbering; copies: 2 + 2
B38: IgG1-F1250 (antibody)
heavy: B1 heavy with S256T, T258Q, K440R
light: not shown
notes: EU numbering; copies: 2 + 2
B39: IgG1-F1206 (antibody)
heavy: B1 heavy with R237L, K241S, T252V, S256T, T258Q, K440R
light: not shown
notes: EU numbering; copies: 2 + 2
B40: IgG1-F1189 (antibody)
heavy: B1 heavy with R237L, K241S, H435D, K440R
light: not shown
notes: EU numbering; copies: 2 + 2
B41: IgG1-F1162 (antibody)
heavy: B1 heavy with R237L, P240D, K241S, T252Y, K440Q, E442S
light: not shown
notes: EU numbering; copies: 2 + 2
B42: IgG1-F1192 (antibody)
heavy: B1 heavy with R237L, K241S, T439G, K440R
light: not shown
notes: EU numbering; copies: 2 + 2
B43: IgG1-F1185 (antibody)
heavy: B1 heavy with R237L, K241S, Y254M, T309A, E382A, M430L, Y436S, V438Y, K440Q, E442S
light: not shown
notes: EU numbering; copies: 2 + 2
B44: IgG1-F1230 (antibody)
heavy: B1 heavy with R237L, K241S, K440R, E442D
light: not shown
notes: EU numbering; copies: 2 + 2
B45: IgG1-F1261 (antibody)
heavy: B1 heavy with K440R, E442D
light: not shown
notes: EU numbering; copies: 2 + 2
B46: IgG1-F1197 (antibody)
heavy: B1 heavy with R237L, K241S, S256T, K440R
light: not shown
notes: EU numbering; copies: 2 + 2
B47: IgG1-F1258 (antibody)
heavy: B1 heavy with T309A, Q313H, K440R
light: not shown
notes: EU numbering; copies: 2 + 2
B48: IgG1-F1201 (antibody)
heavy: B1 heavy with R237L, K241S, T252V, T258E, K440R
light: not shown
notes: EU numbering; copies: 2 + 2
B49: IgG1-F1216 (antibody)
heavy: B1 heavy with R237L, K241S, L253S, K440Q, E442S
light: not shown
notes: EU numbering; copies: 2 + 2
B50: IgG1-F1217 (antibody)
heavy: B1 heavy with R237L, K241S, L253T, K440Q, E442S
light: not shown
notes: EU numbering; copies: 2 + 2
B51: IgG1-F1229 (antibody)
heavy: B1 heavy with R237L, K241S, I255V, K440Q, E442S
light: not shown
notes: EU numbering; copies: 2 + 2
B52: IgG1-F1211 (antibody)
heavy: B1 heavy with R237L, K241S, L253H, K440Q, E442S
light: not shown
notes: EU numbering; copies: 2 + 2
B53: IgG1-F1207 (antibody)
heavy: B1 heavy with R237L, K241S, Y254M, I334E, M430L, Y436S, V438Y, K440Q, E442S
light: not shown
notes: EU numbering; copies: 2 + 2
B54: IgG1-F1263 (antibody)
heavy: B1 heavy with E442D
light: not shown
notes: EU numbering; copies: 2 + 2
B55: IgG1-F1205 (antibody)
heavy: B1 heavy with R237L, K241S, T252V, T258Q, K440R
light: not shown
notes: EU numbering; copies: 2 + 2

The target in the test is T1, soluble human FcRn (human, UniProt P55899 24-297; P61769 21-119).
T1 construct: Heterodimer of FcRn alpha chain and beta2-microglobulin; also called hFcRn
T1 sequence (P55899 24-297 limits assumed, chain 1 of 2): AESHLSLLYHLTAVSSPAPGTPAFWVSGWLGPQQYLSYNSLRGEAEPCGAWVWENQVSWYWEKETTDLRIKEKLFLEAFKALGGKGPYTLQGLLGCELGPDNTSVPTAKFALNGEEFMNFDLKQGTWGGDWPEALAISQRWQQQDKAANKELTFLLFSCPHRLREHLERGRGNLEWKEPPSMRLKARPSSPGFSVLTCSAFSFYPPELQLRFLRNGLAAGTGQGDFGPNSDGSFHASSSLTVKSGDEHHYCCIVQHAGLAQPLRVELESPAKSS
T1 sequence (P61769 21-119 limits assumed, chain 2 of 2): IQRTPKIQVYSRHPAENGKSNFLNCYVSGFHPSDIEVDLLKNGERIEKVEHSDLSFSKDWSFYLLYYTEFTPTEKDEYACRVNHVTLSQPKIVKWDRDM
The test can be described thus: SPR (Biacore T100), antibody captured by protein L, hFcRn as analyte, pH 7.0, 25 C.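 Note: KD calculated from fitted association and dissociation rate constants of the sensorgrams, protein L amine-coupled to the sensor chip, sodium phosphate running buffer with NaCl and Tween20.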
Protocol: An appropriate amount of protein L (ACTIGEN) was immobilized onto Sensor chip CM4 (GE Healthcare) by the amino coupling method, and the chip was allowed to capture an antibody of interest. Then, diluted FcRn solutions and running buffer (as a reference solution) were injected to allow human FcRn to interact with the antibody captured on the sensor chip. The running buffer used comprised 50 mmol/l sodium phosphate, 150 mmol/l NaCl, and 0.05% (w/v) Tween20 (pH 7.0). FcRn was diluted using each buffer. The chip was regenerated using 10 mmol/l glycine-HCl (pH 1.5). Assays were carried out exclusively at 25 degrees C. The association rate constant ka (1/Ms) and dissociation rate constant kd (1/s), both of which are kinetic parameters, were calculated based on the sensorgrams obtained in the assays, and KD (M) of each antibody for human FcRn was determined from these values. Each parameter was calculated using Biacore T100 Evaluation Software (GE Healthcare).
Regarding B1, binding was put at a Kd of 130 nM.
As to B2, the Kd (in general, the constant that tells how readily two partners part at equilibrium) is 250 nM.
On to B3, for which the Kd came to 150 nM.
B4 had a Kd of 45 nM.
On to B5, for which the affinity, expressed as Kd, was 160 nM.
Molecule B6 registered a Kd of 70 nM.
B7: the Kd was determined as 1300 nM.
The value for B8 was 88 nM; that for B9 was 570 nM; that for B10 was 150 nM.
The molecule B11 displayed a Kd of 130 nM.
B12 yielded a Kd of 98 nM.
Turning to B13, the Kd was determined as 210 nM.
B14 showed a Kd of 290 nM.
Regarding B15, the Kd amounted to 78 nM.
For the molecule B16, the Kd was 64 nM.
The value for B17 was 78 nM.
Molecule B18 registered a Kd of 160 nM.
B19 yielded a Kd of 1100 nM.
B20: the Kd is 97 nM.
Next, B21: 1700 nM.
The molecule B22 came in with a Kd of 150 nM.
Regarding B23, binding was put at a Kd of 280 nM.
As to B24, binding was put at a Kd of 62 nM.
B25 came in with a Kd of 870 nM.
Next, B26: 150 nM; B27: 110 nM; B28: 120 nM.
The value for B29 was 170 nM.
Next, B30: 65 nM; B31: 100 nM.
B32: the Kd was determined as 230 nM.
B33 gave a Kd of 210 nM.
B34 yielded a Kd of 130 nM.
Consider B35, for which the affinity, expressed as Kd, was 16 nM.
As to B36, the Kd was determined as 110 nM.
The value for B37 was 180 nM; that for B38 was 170 nM.
Regarding B39, the Kd is 170 nM.
The value for B40 was 160 nM.
Take B41: the dissociation constant Kd turned out to be 340 nM.
The value for B42 was 130 nM; that for B43 was 920 nM.
For the molecule B44, the Kd turned out to be 110 nM.
The value for B45 was 140 nM; that for B46 was 95 nM.
As to B47, the Kd is 110 nM.
B48: the Kd was 110 nM.
As for B49, binding was put at a Kd of 1200 nM.
The molecule B50 gave a dissociation constant (Kd) of 1100 nM.
On to B51, for which the Kd was found to be 2800 nM.
Next, B52: 1200 nM; B53: 1100 nM; B54: 120 nM.
B55 displayed a Kd of 200 nM.

Values taken from patent publication US20140363428A1 (Chugai, published 2014).
